Patent US20220064644A1 (TAIPEI MEDICAL UNIVERSITY, published 2022)
Changes are numbered by the printed parent chain. Names and notes keep the numbering of the source. Blank lines part the entries; values can stand above or below the binder they belong to.

Key:
[1] = target: T1, GST protein (UniProt P08515 1-218 = GST); assay: GST pull-down with purified recombinant proteins, Western blot
T1 construct: Negative control in the pull-down assays
Procedure: The indicated lysates (1 mg) were incubated with purified recombinant GST or GST-Q₂₅-HTTEX1 protein as indicated for 60 min at 4° C. to allow complex formation. GST served as a negative control. The protein complexes were analyzed by Western blotting. The amount of PIAS1-domain-deletion mutant was normalized to the corresponding bait (GST-Q₂₅-HTTEX1 protein). The data are presented as the mean±SEM (N=4). **p<0.001 and ****p<0.0001 by one-way ANOVA. (FIG. 12 (C)) Purified recombinant 6×His-S/T rich region only of PIAS1 was incubated with purified recombinant GST or GST-Q₂₅-HTTEX1 protein for 60 min at 4° C. GST served as a negative control. The protein complexes were analyzed by Western blotting. The red arrowhead and yellow arrowhead mark the GST-Q₂₅-HTTEX1 and GST proteins, respectively. The data shown here represent three independent experiments.
GST Pull-down Assay. Cell lysates were harvested using a nondenaturing lysis buffer (137 mM NaCl, 1% NP-40, 20 mM Tris pH 8.0, and 1 mM EDTA) containing a protease inhibitor cocktail and 1× phosphatase inhibitor cocktail (Roche) and subjected to rotation at 4° C. for 1 hr. […] The bound proteins were analyzed with SDS-PAGE and Western blotting. […]

[2] = target: ATXN3-84Q (mutant ATXN3), P54252
[3] = target: T2, GST-Q43-HTTEX1, P42858
T2 chain: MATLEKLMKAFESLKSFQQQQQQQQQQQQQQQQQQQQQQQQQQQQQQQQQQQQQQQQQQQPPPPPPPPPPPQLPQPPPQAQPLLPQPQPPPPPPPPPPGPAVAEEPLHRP

[4] = target: ATXN3-28Q (normal ATXN3), P54252
Sequence of ATXN3-28Q (normal ATXN3), P54252 (P54252 whole entry, looked up, tested part not stated): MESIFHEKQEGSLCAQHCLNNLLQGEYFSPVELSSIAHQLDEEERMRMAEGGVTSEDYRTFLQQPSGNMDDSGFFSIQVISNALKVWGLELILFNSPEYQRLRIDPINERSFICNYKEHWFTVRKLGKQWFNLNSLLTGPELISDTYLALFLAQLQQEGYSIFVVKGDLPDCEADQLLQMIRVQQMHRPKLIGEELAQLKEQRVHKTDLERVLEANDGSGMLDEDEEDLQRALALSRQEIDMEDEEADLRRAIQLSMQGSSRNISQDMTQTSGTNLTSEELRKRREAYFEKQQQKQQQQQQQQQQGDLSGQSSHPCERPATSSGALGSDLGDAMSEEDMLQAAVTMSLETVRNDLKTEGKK

Sequence of ATXN3-84Q (mutant ATXN3), P54252 (P54252 whole entry, looked up, change not shown, tested part not stated): as the sequence (P54252 whole entry, looked up, tested part not stated) above
T1 sequence (P08515 whole entry): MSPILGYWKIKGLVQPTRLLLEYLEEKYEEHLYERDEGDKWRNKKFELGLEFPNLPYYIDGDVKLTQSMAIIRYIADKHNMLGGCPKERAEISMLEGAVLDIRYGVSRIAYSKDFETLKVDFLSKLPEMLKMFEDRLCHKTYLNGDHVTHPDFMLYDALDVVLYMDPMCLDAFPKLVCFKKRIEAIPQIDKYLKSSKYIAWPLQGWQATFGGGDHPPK

binding result [1]: no binding
B1: 6xHis-S/T rich region only of PIAS1 (other, human, UniProt O75925 480-651, looked up)
chain: TCPSLSPTSPLNNKGILSLPHQASPVSRTPSLPAVDTSYINTSLIQDYRHPFHMTPMPYDLQGLDFFPFLSGDNQHYNTSLLAAAAAAVSDDQDLLHSSRFFPYTSSQMFLDQLSAGGSTSLPTTNGSSSGSNSSLVSSNSLRESHSHTVTNRSSTDTASIFGIIPDIISLD
notes: domain: S/T rich region; Purified recombinant protein from BL21 cells; also called S/T only; S/T-only PIAS1; not shown: 6xHis tag from the pRSETA-6xHis vector

B2: wild-type PIAS1 (Homo sapiens protein inhibitor of activated STAT 1) (protein)
chain: MADSAELKQMVMSLRVSELQVLLGYAGRNKHGRKHELLTKALHLLKAGCSPAVQMKIKELYRRRFPQKIMTPADLSIPNVHSSPMPATLSPSTIPQLTYDGHPASSPLLPVSLLGPKHELELPHLTSALHPVHPDIKLQKLPFYDLLDELIKPTSLASDNSQRFRETCFAFALTPQQVQQISSSMDISGTKCDFTVQVQLRFCLSETSCPQEDHFPPNLCVKVNTKPCSLPGYLPPTKNGVEPKRPSRPINITSLVRLSTTVPNTIVVSWTAEIGRNYSMAVYLVKQLSSTVLLQRLRAKGIRNPDHSRALIKEKLTADPDSEIATTSLRVSLLCPLGKMRLTIPCRALTCSHLQCFDATLYIQMNEKKPTWVCPVCDKKAPYEHLIIDGLFMEILKYCTDCDEIQFKEDGTWAPMRSKKEVQEVSASYNGVDGCLSSTLEHQVASHHQSSNKNKKVEVIDLTIDSSSDEEEEEPSAKRTCPSLSPTSPLNNKGILSLPHQASPVSRTPSLPAVDTSYINTSLIQDYRHPFHMTPMPYDLQGLDFFPFLSGDNQHYNTSLLAAAAAAVSDDQDLLHSSRFFPYTSSQMFLDQLSAGGSTSLPTTNGSSSGSNSSLVSSNSLRESHSHTVTNRSSTDTASIFGIIPDIISLD
in vitro SUMOylation assay (SUMO3 conjugation of ATXN3) [2]: When PIAS1 and ATP (ATP is necessary for SUMOylation activation) participated the reaction process, formed ATXN3 SUMO conjugation (FIG. 6 (B)), both normal and mutant ATXN3
in vitro SUMOylation of GST-Q43-HTTEX1 (Western blot shift) [3]: The addition of PIAS1^WT enhanced the SUMOylation of GST-Q43-HTTEX1
in vitro SUMOylation assay (SUMO3 conjugation of ATXN3) [4]: When PIAS1 and ATP (ATP is necessary for SUMOylation activation) participated the reaction process, formed ATXN3 SUMO conjugation (FIG. 6 (B)), both normal and mutant ATXN3

B3: PIAS1 gene variant 3 (PIAS1^S510G) (protein)
chain: B2 chain with S510G
in vitro SUMOylation of GST-Q43-HTTEX1 (Western blot shift) [3]: Compared with PIAS1^WT, PIAS1^S510G induced a much lower level of SUMOylation of GST-Q43HTTEX1
